21 sequences from the supplement of paper PMC12764529 can be followed below.

± gives the half width of the 95% confidence interval. Some results are limits rather than exact numbers.

The nature of data set [1]: folding stability dG unfold (combined trypsin and chymotrypsin); higher = more stable. Put shortly: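 Only designs with AlphaFold2 dimer inter-PAE above 15 were retained; each was a mini-protein under 80 residues with no cysteine, in a PA-tagged cDNA display construct. After digestion with trypsin and chymotrypsin and sequencing, K50 was inferred by Bayesian fitting of counts, and unfolding free energy was derived per protease or combined against a sequence-predicted unfolded-state K50 and a shared folded-state K50.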

Data set [2] is described as follows: folding stability dG unfold from chymotrypsin proteolysis; higher = more stable. As for the experimental part:
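Folding stability of de novo designed mini-proteins (<80 aa, no Cys; designed by TrROS, TrMRF, ProteinMPNN and the joint model) was measured by cDNA display proteolysis with trypsin and chymotrypsin. Each protease was used at 11 concentrations in a threefold dilution series plus a no-protease condition. K50 was inferred by Bayesian fitting of sequencing counts, and dG unfold was derived against a sequence-predicted unfolded-state K50 (Tsuboyama et al. method). Sequences shown include variable-length N-terminal GS-type padding (SAGGSAGG...) inside a display construct carrying a PA tag. Rows were kept only if the AF2 dimer inter-PAE was >15, to exclude likely homo-oligomers.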

In the case of “SAGGSAGGSAGKLRFRRVGLVLELNEDGSLSLSPIEEEVEVEVPEPLPVGLGLGGKPYLLSAGGSAGGSAGG [r17_418_TrMRF]”, the “folding stability dG unfold” value is -0.0408 ± 0.22 kcal/mol in data set [1] and 0.325 ± 0.27 kcal/mol in data set [2].
Taken in the same sequence, the figures for “SAGGSAGGSAGKNNKVKLTYTIEVEGEGKPKKIKIEYYLSPNGIPEPPELIKSKAGGLAKSAGGSAGGSAGG [r17_373_TrMRF]” were -0.191 ± 0.21 kcal/mol and 0.306 ± 0.13 kcal/mol.
Taken in the same sequence, the figures for “SAGGSAGGSAGMEPLKEIEVPFPGGWSIEIEVYPNGIKIEPNPNFDNPQMKKRILDALNPSAGGSAGGSAGG [r11_372_TrROS]” were -0.445 ± 0.42 kcal/mol and -0.0677 ± 0.26 kcal/mol.
Taken in the same sequence, the figures for “SAGGSAGGSAGMESKVVTLDVPLAPDETAEAVAARLRAADPAAVLLGYDPAAGRVTVRVASAGGSAGGSAGG [r11_465_JUSTAS]” were -0.332 ± 0.087 kcal/mol and 0.411 ± 0.078 kcal/mol.
“SAGGSAGGSAGMIQIDQDPNNGNYKVKIRNPDGKPREFNVDSPDELEDAADKNGFPAEPISAGGSAGGSAGG [r11_1049_TrROS]”: the “folding stability dG unfold” value in data set [1] is -0.512 ± 0.41 kcal/mol; in data set [2], -0.0704 ± 0.14 kcal/mol.
“SAGGSAGGSAGMIVVPPEDLENLPPWYSVEPGEDSVTVWDESNPVVVPRDEPALVSPPERSAGGSAGGSAGG [r17_91_JUSTAS]”: the “folding stability dG unfold” value is -0.136 ± 0.22 kcal/mol in data set [1] and 0.72 ± 0.079 kcal/mol in data set [2].
The corresponding values for “SAGGSAGGSAGMKTKATFVIDNEEYDATIDPGTPKNSTATVTKPDSTTTITVTNIKLFPESAGGSAGGSAGG [r11_247_JUSTAS]” are 0.346 ± 0.11 kcal/mol and 0.897 ± 0.062 kcal/mol.
Taken in the same sequence, the figures for “SAGGSAGGSAGMNIVVSSEEEAEKAIKELAKKLGKPNNLKNPKVTVIPLEPTPTGGLKKKSAGGSAGGSAGG [r17_237_JUSTAS]” were -0.301 ± 0.16 kcal/mol and 0.226 ± 0.077 kcal/mol.
Taken in the same sequence, the figures for “SAGGSAGGSAGMRITVEPDRVVVHPPGGEEIVMPAPEWGEEEVLALAEEHPDVEVEPVPPSAGGSAGGSAGG [r17_545_JUSTAS]” were less than -1 kcal/mol and -1.01 ± 0.37 kcal/mol.
With “SAGGSAGGSAGMVIELPVPGTMSPEEARARAEEVAEELARRTGRPVEVREVRLVTPEELASAGGSAGGSAGG [r17_68_JUSTAS]”, the “folding stability dG unfold” value in data set [1] was -0.733 ± 0.4 kcal/mol; in data set [2] it was -0.364 ± 0.086 kcal/mol.
Turning to “SAGGSAGGSAGMVIKSPDGRIIEVEEEEEGEKLKIKRITYVGDKYTPSEEEIEVPPVDLKSAGGSAGGSAGG [r11_106_JUSTAS]”, the results for the “folding stability dG unfold” value in data set [1] and in data set [2] were less than -1 kcal/mol and -0.201 ± 0.54 kcal/mol, respectively.
Taken in the same sequence, the figures for “SAGGSAGGSAGMYDVGFIEAPKDTAYIKFPEINYIAEIKLDPKNGGFSLDEIKLYPLNTKSAGGSAGGSAGG [r11_352_TrMRF]” were 0.107 ± 0.11 kcal/mol and 0.521 ± 0.067 kcal/mol.
Taken in the same sequence, the figures for “SAGGSAGGSAGNPKYVMVPLKFPDGNPVNIMVSDDEIHIYDMGPNKWRWIPADDLPPEAFSAGGSAGGSAGG [r11_155_TrROS]” were 0.215 ± 0.15 kcal/mol and 0.666 ± 0.15 kcal/mol.
The corresponding values for “SAGGSAGGSAGPPPMEPIFTFTNPKEPVTIYRSKDPGNYHIYDPPNGKERTIPPNDPNFFSAGGSAGGSAGG [r11_1007_TrROS]” are less than -1 kcal/mol and -0.0661 ± 0.55 kcal/mol.
Regarding “SAGGSAGGSAGPRVKFRFPGQEHTIPPGRRVYFGNGKKFDPGEPLDDIPPDNITPVEIEPSAGGSAGGSAGG [r17_511_TrROS]”, the “folding stability dG unfold” value is -0.609 ± 0.15 kcal/mol in data set [1] and -0.297 ± 0.18 kcal/mol in data set [2].
“SAGGSAGGSAGRKTLPMRNPNNGHEVTAEIEDENGKPIKIEAPMNSPEMRDMARDFAKKISAGGSAGGSAGG [r11_119_TrROS]”: the entries for the “folding stability dG unfold” value in data set [1] and in data set [2] were -0.154 ± 0.18 kcal/mol and 0.355 ± 0.13 kcal/mol, respectively.
Taken in the same sequence, the figures for “SAGGSAGGSAGRRSVPEEVVEAIAEELPREGLTPKSIEVVEGEDEFEAVIEYDDRTITVAGSAGGSAGGSAG [r3_395_JUSTAS]” were -0.101 ± 0.1 kcal/mol and 0.492 ± 0.023 kcal/mol.
As for “SAGGSAGGSAGSMVTPVTLERYVYIEPTPDGVERKRVVPVKVKETVTVDAAGNVTTTTEVLLSAGGSAGGSA [r18_284_JUSTAS]”, the entries for the “folding stability dG unfold” value in data set [1] and in data set [2] were less than -1 kcal/mol and -0.871 ± 0.31 kcal/mol, respectively.
The corresponding values for “SAGGSAGGSAGSPNYIPKEVTIKVEGEGKPVEVKIKLTTSPEGKPASEEEILKKAEELLKSAGGSAGGSAGG [r17_373_JUSTAS]” are 0.0156 ± 0.34 kcal/mol and 0.372 ± 0.058 kcal/mol.
The corresponding values for “SAGGSAGGSAGSSSSAVRESFQKSPTNVVTRTVTTYDANPSVLSTSSTTVPLSSVPPELLSAGGSAGGSAGG [r11_493_JUSTAS]” are 0.00507 ± 0.15 kcal/mol and 0.44 ± 0.13 kcal/mol.
The corresponding values for “SAGGSAGGSAGSTTTRTVELPPGTSLEEVRARLEAEGYTGVVITEVERPPGPRLRVTVVGSAGGSAGGSAGG [r11_800_JUSTAS]” are -0.0782 ± 0.22 kcal/mol and 0.293 ± 0.06 kcal/mol.
